Measured values published in PMC10897342, “An octameric PqiC toroid stabilises the outer-membrane interaction of the PqiABC transport system” (EMBO Reports, 2024).
Each block holds one binder with its values, some of them ahead of it.

Experiments:
[1] = molecular target: the molecule itself; test: crystal structure; PqiC-His in DDM; 3.2 Å; two chains in the asymmetric unit, octameric toroid by the symmetry of the unit cell; interface analysed with PDBePISA
[2] = molecular target: T1, PqiAB subcomplex (PqiA residues 1–417 and PqiB residues 1–546, C-terminal hexa-histidine tag) (E. coli, UniProt P0AFL9 1-417; P43671 1-546); test: neutron reflectometry; PqiC in a supported dDMPC bilayer on silicon; PqiAB-DMPC proteoliposomes (0.01 mg/mL PqiAB) incubated 30 minutes, washed; 20 mM BTP, 150 mM NaCl, pH 8.5; 25 °C; isotopic contrast variation; settings: both partners purified
T1 construct: PqiA, integral inner membrane protein of E. coli, residues 1–417; PqiB, periplasm-spanning MCE family protein of E. coli, residues 1–546; also called purified PqiAB subcomplex; PqiAB-proteoliposomes; copies: + 6
T1 sequence (looked up) 1: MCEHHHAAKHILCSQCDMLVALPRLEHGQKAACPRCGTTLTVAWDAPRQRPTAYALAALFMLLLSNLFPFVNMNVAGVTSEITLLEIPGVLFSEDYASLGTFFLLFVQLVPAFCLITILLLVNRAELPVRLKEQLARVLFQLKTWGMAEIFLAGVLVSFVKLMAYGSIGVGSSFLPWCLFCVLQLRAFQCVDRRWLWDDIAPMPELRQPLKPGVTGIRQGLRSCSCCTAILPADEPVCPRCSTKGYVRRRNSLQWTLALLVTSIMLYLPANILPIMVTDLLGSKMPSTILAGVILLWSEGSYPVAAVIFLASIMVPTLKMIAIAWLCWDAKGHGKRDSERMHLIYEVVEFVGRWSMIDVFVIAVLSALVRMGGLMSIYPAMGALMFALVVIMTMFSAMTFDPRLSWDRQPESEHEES
T1 sequence (looked up) 2: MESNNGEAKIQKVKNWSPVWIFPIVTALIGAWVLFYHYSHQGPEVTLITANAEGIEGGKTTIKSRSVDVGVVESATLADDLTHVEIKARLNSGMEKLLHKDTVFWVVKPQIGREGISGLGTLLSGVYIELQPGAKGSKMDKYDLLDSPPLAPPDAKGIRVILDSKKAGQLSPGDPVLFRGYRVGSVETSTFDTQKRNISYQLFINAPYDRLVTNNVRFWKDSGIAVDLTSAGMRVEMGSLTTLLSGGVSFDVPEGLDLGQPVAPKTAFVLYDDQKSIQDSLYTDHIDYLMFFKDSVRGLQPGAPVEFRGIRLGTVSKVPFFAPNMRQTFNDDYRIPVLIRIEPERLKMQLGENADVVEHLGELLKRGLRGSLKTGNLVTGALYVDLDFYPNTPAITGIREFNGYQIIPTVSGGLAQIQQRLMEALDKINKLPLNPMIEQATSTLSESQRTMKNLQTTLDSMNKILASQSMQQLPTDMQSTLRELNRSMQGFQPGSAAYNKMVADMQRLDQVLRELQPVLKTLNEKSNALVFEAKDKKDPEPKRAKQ

[3] = molecular target: T2, PqiB (residues 1–546) with a C-terminal hexa-histidine tag, of the PqiAB construct (E. coli, UniProt P43671 1-546); test: QCM-D; PqiC-Strep in a supported DMPC bilayer on a silicon sensor; PqiAB-DMPC proteoliposomes flowed over, then buffer; 25 °C, 0.1 mL/min; 20 mM Bis-Tris Propane, 150 mM NaCl, pH 8.5; settings: both partners purified
T2 construct: PqiB, periplasm-spanning MCE family protein of E. coli, residues 1–546; Always present together with PqiA in the experiments; also called hexameric PqiB; source: E. coli C43 (DE3), co-expressed with PqiA, purified (Ni-NTA, SEC) in DDM, reconstituted into DMPC proteoliposomes; not shown: His6, C-terminal, kept
T2 sequence (looked up): T1 sequence (looked up) 2

B1: E. coli PqiC (residues 1–187) with a C-terminal hexa-histidine tag (natural protein, UniProt P0AB10 16-187, looked up)
chain: CSSGEINKNYYQLPVVQSGTQSTASQGNRLLWVEQVTVPDYLAGNGVVYQTSDVKYVIANNNLWASPLDQQLRNTLVANLSTQLPGWVVASQPLGSAQDTLNVTVTEFNGRYDGKVIVSGEWLLNHQGQLIKRPFRLEGVQTQDGYDEMVKVLAGVWSQEAASIAQEIKRLP
modifications: N-terminally acylated Cysteine (C16); the construct is 'presumably processed and lipidated in the same manner as the native lipoprotein'
notes: signal peptide in the construct; the N-terminal signal peptide is called residues 1–16 in the methods, while the mature lipoprotein is said to begin at the acylated C16; Octamer by the crystal's symmetry (two chains in the asymmetric unit); also called native PqiC; full length PqiC; source: E. coli C43 (DE3), membrane fraction solubilised in DDM, purified (Ni-NTA, SEC)
- stoichiometry N [1]: 8

- binding result [2]: binds
- binding result [3]: binds
B2: PqiC-Strep, E. coli PqiC residues 1–186 with a C-terminal StrepTag II (natural protein, UniProt P0AB10 16-186, looked up)
chain: CSSGEINKNYYQLPVVQSGTQSTASQGNRLLWVEQVTVPDYLAGNGVVYQTSDVKYVIANNNLWASPLDQQLRNTLVANLSTQLPGWVVASQPLGSAQDTLNVTVTEFNGRYDGKVIVSGEWLLNHQGQLIKRPFRLEGVQTQDGYDEMVKVLAGVWSQEAASIAQEIKRL
modifications: lipidation of Cys16 (the paper: 'a native PqiC construct was used')
notes: signal peptide in the construct; Stood in a supported DMPC bilayer on a silicon surface; also called PqiC (in QCM-D and NR); surface-tethered PqiC octamer
